The values below come from paper PMC9478400, “Identification and characterization of a novel hydroxylamine oxidase, DnfA, that catalyzes the oxidation of hydroxylamine to N2” (The Journal of Biological Chemistry, 2022).

Data set [1] has as its target T1, DnfA (Alcaligenes ammonioxydans, UniProt A0ABX8SXK4).
T1 construct: gene FE795_13025; full-length, 6xHis-tagged, pET-21a, E. coli BL21(DE3); dimer by gel filtration; diiron (residues Glu88, Glu123, His126, Glu182, His209, Glu213, His216)
T1 sequence (A0ABX8SXK4 1-317): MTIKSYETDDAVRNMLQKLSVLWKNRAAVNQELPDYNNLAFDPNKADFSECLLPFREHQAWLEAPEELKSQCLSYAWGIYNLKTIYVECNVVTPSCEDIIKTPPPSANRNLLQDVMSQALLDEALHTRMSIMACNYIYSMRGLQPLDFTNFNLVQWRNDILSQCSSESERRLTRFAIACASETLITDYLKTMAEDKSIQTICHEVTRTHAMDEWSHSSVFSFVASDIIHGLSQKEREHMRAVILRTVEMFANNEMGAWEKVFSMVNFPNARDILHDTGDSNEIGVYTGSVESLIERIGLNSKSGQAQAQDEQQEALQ
Description: isothermal titration calorimetry. It counts as binding. To be noted: 25 °C; hydroxylamine injected into enzyme. (In general: Isothermal titration calorimetry measures the heat released or taken up as one component is titrated into another.)

The target in data set [2] is T1, DnfA. Description: differential scanning fluorimetry. The note with it: 10 mM compound, 100 μg/ml DnfA, 20 mM Tris-HCl pH 8.0, SYPRO Orange. In kind it is binding. Background: DSF heats the sample and reads unfolding from a dye or from intrinsic fluorescence.
The target of data set [3] is DnfA hydroxylamine oxidase of Alcaligenes ammonioxydans HO-1 (Alcaligenes ammonioxydans HO-1). Description: SEC; gel filtration of native DnfA on Superdex 200 Increase 10/300 GL; mobile phase 20 mM Tris-HCl, 150 mM NaCl, pH 8.0; UV absorbance at 280 nm.
Substrate in data set [4]: NO
Description: Michaelis-Menten, nonlinear regression, N2-forming hydroxylamine oxidation. It counts as biochemical, Alcaligenes ammonioxydans. To be noted: 10 μM DnfA, 100 μM FAD, 1 mM NADH, atmospheric O2, 15 to 400 μM NH2OH. The source says: Michaelis-Menten, nonlinear regression, N2-forming hydroxylamine oxidation on DnfA | the Michaelis–Menten constant (Km) for hydroxylamine

With `NO` [hydroxylamine], the isothermal titration calorimetry entry at DnfA [1] is “none of them interacted with ammonia, but DnfA bound to hydroxylamine”. Moreover, the differential scanning fluorimetry result at DnfA [2] is listed as “DSF test demonstrated also that DnfA bound hydroxylamine”.
Take “DnfA hydroxylamine oxidase of Alcaligenes ammonioxydans HO-1 (enzyme)”: the stoichiometry N (usually a count of units in the complex or per binding partner) in data set [3] turned out to be 2.

B1: DnfA (Alcaligenes ammonioxydans) (protein)
chain: MTIKSYETDDAVRNMLQKLSVLWKNRAAVNQELPDYNNLAFDPNKADFSECLLPFREHQAWLEAPEELKSQCLSYAWGIYNLKTIYVECNVVTPSCEDIIKTPPPSANRNLLQDVMSQALLDEALHTRMSIMACNYIYSMRGLQPLDFTNFNLVQWRNDILSQCSSESERRLTRFAIACASETLITDYLKTMAEDKSIQTICHEVTRTHAMDEWSHSSVFSFVASDIIHGLSQKEREHMRAVILRTVEMFANNEMGAWEKVFSMVNFPNARDILHDTGDSNEIGVYTGSVESLIERIGLNSKSGQAQAQDEQQEALQ
notes: full-length, 6xHis-tagged, pET-21a, E. coli BL21(DE3); dimer by gel filtration; diiron (residues Glu88, Glu123, His126, Glu182, His209, Glu213, His216)
As to B1, in data set [4], the Km (as a rule, the substrate concentration at which the rate is half of its maximum) was found to be 92.9 ± 3.0 µM; the kcat (commonly the number of substrate molecules converted per active site and unit of time at saturation) came out at 0.028 ± 0.001 s⁻¹.
